What was measured:
[1] = tested on: Cc1cc2nc3c(=O)[nH]c(=O)nc-3n(C[C@H](O)[C@H](O)[C@H](O)COP(=O)(O)OP(=O)(O)OC[C@H]3O[C@@H](n4cnc5c(N)ncnc54)[C@H](O)[C@@H]3O)c2cc1C; experiment: purified protein; format: biochemical, Variovorax paradoxus; conditions: 20 mM Tris-HCl pH 7.5, 30 °C
[2] = tested on: Cc1cc2nc3c(=O)[nH]c(=O)nc-3n(C[C@H](O)[C@H](O)[C@H](O)COP(=O)(O)O)c2cc1C; experiment: purified protein; format: biochemical, Variovorax paradoxus; conditions: NADH 164 µM, FMN 4.1-90.2 µM, 20 mM Tris-HCl pH 7.5, 30 °C
VpStyA2B = molecular target: T1, VpStyA2B (Variovorax paradoxus, UniProt E6V139); experiment: NADH consumption at […] nm, Michaelis-Menten fit; format: biochemical; conditions: linker AREAV (408-412) replaced/extended; NADH in excess, concentrations as for wild type; 20 mM Tris-HCl pH 7.5, 30 °C; read-out: Acceptor FAD ^1 / Km
T1 construct: gene styA2B
T1 sequence (E6V139 1-578): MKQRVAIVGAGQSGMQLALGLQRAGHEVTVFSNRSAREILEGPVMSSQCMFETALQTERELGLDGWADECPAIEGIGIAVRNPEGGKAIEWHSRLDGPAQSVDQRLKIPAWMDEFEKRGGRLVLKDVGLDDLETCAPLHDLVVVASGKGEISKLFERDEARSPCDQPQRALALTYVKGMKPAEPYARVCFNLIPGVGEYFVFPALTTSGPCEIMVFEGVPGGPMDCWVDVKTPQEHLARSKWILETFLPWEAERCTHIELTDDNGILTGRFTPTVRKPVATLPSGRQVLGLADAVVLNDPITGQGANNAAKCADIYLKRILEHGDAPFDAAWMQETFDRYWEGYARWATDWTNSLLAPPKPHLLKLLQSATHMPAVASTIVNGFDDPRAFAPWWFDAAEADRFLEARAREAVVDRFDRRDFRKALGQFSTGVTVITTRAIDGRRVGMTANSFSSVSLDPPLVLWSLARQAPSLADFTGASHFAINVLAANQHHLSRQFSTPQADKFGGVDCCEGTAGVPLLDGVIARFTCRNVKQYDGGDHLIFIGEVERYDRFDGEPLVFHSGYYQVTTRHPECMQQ

[3] = 408-HHHHH linker mutant, NADH in excess, concentrations as for wild type
[4] = 408-WYHHH linker mutant, NADH in excess, concentrations as for wild type
[5] = 408-AAAAA linker mutant, NADH in excess, concentrations as for wild type
[6] = 408-TIVVV linker mutant, NADH in excess, concentrations as for wild type

For “VpStyA2B (Variovorax paradoxus EPS; A408H/A411H/E410H/R409H/V412H)”, the Km [1, 3] was 14.5 µM, the Vmax [1, 3] was 3.1 µmol/min/mg and the kcat/Km [1, 3] was 230000 M⁻¹ s⁻¹.
For VpStyA2B (Variovorax paradoxus EPS), the Km [2] was 45.9 ± 6.8 µM, the Vmax [2] was 26 µmol/min/mg and the kcat [2] was 28.7 ± 1.9 s⁻¹. It also gave a kcat/Km [2] of 570000 M⁻¹ s⁻¹, a Km ([1]; NADH 164 µM, FAD 6.3-78.8 µM) of 33.6 ± 4.0 µM and a Vmax ([1]; NADH 164 µM, FAD 6.3-78.8 µM) of 20.2 µmol/min/mg. It also gave a kcat ([1]; NADH 164 µM, FAD 6.3-78.8 µM) of 22.3 ± 1.1 s⁻¹ and a kcat/Km ([1]; NADH 164 µM, FAD 6.3-78.8 µM) of 640000 M⁻¹ s⁻¹.
For “VpStyA2B (Variovorax paradoxus EPS; A408W/A411H/E410H/R409Y/V412H)”, the Km [1, 4] was 3.2 µM, the Vmax [1, 4] was 6.9 µmol/min/mg and the kcat/Km [1, 4] was 2.3e+06 M⁻¹ s⁻¹.
“VpStyA2B (Variovorax paradoxus EPS; E410A/R409A/V412A)” showed a Km [1, 5] of 1.8 µM, a Vmax [1, 5] of 8.8 µmol/min/mg and a kcat/Km [1, 5] of 5.21e+06 M⁻¹ s⁻¹.
`Cc1cc2nc3c(=O)[nH]c(=O)nc-3n(C[C@H](O)[C@H](O)[C@H](O)COP(=O)(O)OP(=O)(O)OC[C@H]3O[C@@H](n4cnc5c(N)ncnc54)[C@H](O)[C@@H]3O)c2cc1C` [FAD] showed a Km (VpStyA2B) of 7.4 µM.
Work on “VpStyA2B (Variovorax paradoxus EPS; A408T/A411V/E410V/R409I)” yielded a Km [1, 6] of 5.1 µM, a Vmax [1, 6] of 3.1 µmol/min/mg and a kcat/Km [1, 6] of 650000 M⁻¹ s⁻¹.
